In article PMC3656419 (Journal of molecular biology, 2008):

Tests used:
AUC = target: the molecule itself; experiment: AUC
crystal structure = target: the molecule itself; experiment: crystal structure
SEC = target: the molecule itself; experiment: SEC

B1: SeMet EcMenD (selenomethionine derivative of Escherichia coli MenD, histidine tag removed by proteolysis) (enzyme, E. coli (K12))
chain: GHMSVSAFNRRWAAVILEALTRHGVRHICIAPGSRSTPLTLAAAENSAFIHHTHFDERGLGHLALGLAKVSKQPVAVIVTSGTAVANLYPALIEAGLTGEKLILLTADRPPELIDCGANQAIRQPGMFASHPTHSISLPRPTQDIPARWLVSTIDHALGTLHAGGVHINCPFAEPLYGEMDDTGLSWQQRLGDWWQDDKPWLREAPRLESEKQRDWFFWRQKRGVVVAGRMSAEEGKKVALWAQTLGWPLIGDVLSQTGQPLPCADLWLGNAKATSELQQAQIVVQLGSSLTGKRLLQWQASCEPEEYWIVDDIEGRLDPAHHRGRRLIANIADWLELHPAEKRQPWCVEIPRLAEQAMQAVIARRDAFGEAQLAHRICDYLPEQGQLFVGNSLVVRLIDALSQLPAGYPVYSNRGASGIDGLLSTAAGVQRASGKPTLAIVGDLSALYDLNALALLRQVSAPLVLIVVNNNGGQIFSLLPTPQSERERFYLMPQNVHFEHAAAMFELKYHRPQNWQELETAFADAWRTPTTTVIEMVVNDTDGAQTLQQLLAQVSHL
modifications: selenomethionine in place of methionine (full incorporation of SeMet)
AUC
  stoichiometry N: 3
Crystal structure
  stoichiometry N: 4
SEC
  stoichiometry N: 2

B2: native EcMenD (Escherichia coli 2-succinyl-5-enolpyruvyl-6-hydroxy-3-cyclohexadiene-1-carboxylate synthase), N-terminal hexahistidine-tagged (enzyme, E. coli (K12), UniProt P17109 1-556, looked up)
chain: MSVSAFNRRWAAVILEALTRHGVRHICIAPGSRSTPLTLAAAENSAFIHHTHFDERGLGHLALGLAKVSKQPVAVIVTSGTAVANLYPALIEAGLTGEKLILLTADRPPELIDCGANQAIRQPGMFASHPTHSISLPRPTQDIPARWLVSTIDHALGTLHAGGVHINCPFAEPLYGEMDDTGLSWQQRLGDWWQDDKPWLREAPRLESEKQRDWFFWRQKRGVVVAGRMSAEEGKKVALWAQTLGWPLIGDVLSQTGQPLPCADLWLGNAKATSELQQAQIVVQLGSSLTGKRLLQWQASCEPEEYWIVDDIEGRLDPAHHRGRRLIANIADWLELHPAEKRQPWCVEIPRLAEQAMQAVIARRDAFGEAQLAHRICDYLPEQGQLFVGNSLVVRLIDALSQLPAGYPVYSNRGASGIDGLLSTAAGVQRASGKPTLAIVGDLSALYDLNALALLRQVSAPLVLIVVNNNGGQIFSLLPTPQSERERFYLMPQNVHFEHAAAMFELKYHRPQNWQELETAFADAWRTPTTTVIEMVVNDTDGAQTLQQLLAQVSHL
SEC
  stoichiometry N: 2
